Reference: US20230265179A1 (TWIST BIOSCIENCE, published 2023)
Substitutions are numbered along the chain they refer to.

T1: IL1RL2 over-expressed on Expi293 cells (UniProt Q9HB29 20-575, limits assumed)
T1 construct: whole, on cells; Target of the flow cytometry assay; MFI ratio is over-expressing cells over parent cells
T1 sequence (looked up): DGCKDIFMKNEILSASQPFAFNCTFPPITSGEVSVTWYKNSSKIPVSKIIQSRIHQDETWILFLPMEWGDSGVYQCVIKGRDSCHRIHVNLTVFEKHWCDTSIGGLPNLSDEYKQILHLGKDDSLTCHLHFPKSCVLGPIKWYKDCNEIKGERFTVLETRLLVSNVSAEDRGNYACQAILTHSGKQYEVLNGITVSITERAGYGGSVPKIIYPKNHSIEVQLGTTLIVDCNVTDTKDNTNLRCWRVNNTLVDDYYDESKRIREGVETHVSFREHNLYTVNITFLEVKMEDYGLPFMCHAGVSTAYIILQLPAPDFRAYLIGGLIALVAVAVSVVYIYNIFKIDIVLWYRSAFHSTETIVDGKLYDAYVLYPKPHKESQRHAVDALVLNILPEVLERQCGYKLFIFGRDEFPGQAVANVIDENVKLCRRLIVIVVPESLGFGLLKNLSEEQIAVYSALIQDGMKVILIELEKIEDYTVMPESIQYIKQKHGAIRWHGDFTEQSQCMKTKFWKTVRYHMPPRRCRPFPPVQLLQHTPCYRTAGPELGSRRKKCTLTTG

B1: IL1RL2-153 (antibody, V domains shown)
VH: EVQLLESGGGLVQPGGSLRLSCAASGFIFQWYDMGWVRQAPGKGLEWVSSIRGSSSSTYYADSVKGRFTISRDNSKNTLYLQMNSLRAEDTAVYYCARDLGDYWGQGTLVTVSS
VL: DIQMTQSPSSLSASVGDRVTITCRASQNIRSYLNWYQQKPGKAPKLLIYDDIDRPSGVPSRFSGSGSGTDFTLTISSLQPEDFATYYCQTWGPGIRVFGQGTKVEIK
notes: IgG2
B2: IL1RL2-165 (antibody, V domains shown)
VH: EVQLLESGGGLVQPGGSLRLSCAASGFTFSSAAMSWVRQAPGKGLEWVSAISGSGGNTYYADSVKGRFTISRDNSKNTLYLQMNSLRAEDTAVYYCARSYGGGFDYWGQGTLVTVSS
VL: DIQMTQSPSSLSASVGDRVTITCSGHNLGDKFASWYQQKPGKAPKLLIYSASNLESGVPSRFSGSGSGTDFTLTISSLQPEDFATYYCQSYASQGIHYVFGQGTKVEIK
notes: IgG2
B3: IL1RL2-179 (antibody, V domains shown)
VH: EVQLLESGGGLVQPGGSLRLSCAASGFTFSPRRMSWVRQAPGKGLEWVSTIDDLGRHTYYADSVKGRFTISRDNSKNTLYLQMNSLRAEDTAVYYCAKLANSLLFDYWGQGTLVTVSS
VL: DIQMTQSPSSLSASVGDRVTITCRASENIYSNLAWYQQKPGKAPKLLIYAASDLESGVPSRFSGSGSGTDFTLTISSLQPEDFATYYCGATDLSPWSIVFDQGTKVEIK
notes: IgG2
B4: IL1RL2-180 (antibody, V domains shown)
VH: EVQLLESGGGLVQPGGSLRLSCAASGFTFSDYDMSWVRQAPGKGLEWVSAIEGAGSDTYYADSVKGRFTISRDNSKNTLYLQMNSLRAEDTAVYYCARLAPEFDYWGQGTLVTVSS
VL: DIQMTQSPSSLSASVGDRVTITCRASQSISSYVNWYQQKPGKAPKLLIYQNDKRPSGVPSRFSGSGSGTDFTLTISSLQPEDFATYYCQPSFYFPYAFGQGTKVEIK
notes: IgG2
B5: IL1RL2-187 (antibody, V domains shown)
VH: EVQLLESGGGLVQPGGSLRLSCAASGFTLSSYAMSWVRQAPGKGLEWVSSISSSGGYTGYADSVKGRFTISRDNSKNTLYLQMNSLRAEDTAVYYCAKSFSFFDYWGQGTLVTVSS
VL: DIQMTQSPSSLSASVGDRVTITCRASQSISSYVNWYQQKPGKAPKLLIYGSSYLQSGVPSRFSGSGSGTDFTLTISSLQPEDFATYYCQQNNNWPTTFGQGTKVEIK
notes: IgG2
B6: IL1RL2-285 (antibody, V domains shown)
VH: EVQLLESGGGLVQPGGSLRLSCAASGFTFSNFAMSWVRQAPGKGLEWVSTISGSGGSTSYADSVKGRFTISRDNSKNTLYLQMNSLRAEDTAVYYCAREKRSSGWYPHFDYWGQGTLVTVSS
VL: DIQMTQSPSSLSASVGDRVTITCRASQTIGTYLNWYQQKPGKAPKLLIYGGSRLQSGVPSRFSGSGSGTDFTLTISSLQPEDFATYYCQQSYSTPYTFGGGTKVEIK
notes: IgG2
B7: IL1RL2-298 (antibody, V domains shown)
VH: B6 VH with S30P, N31S, F32Y, S35A, T50A, G56S, T58P, S59Y
VL: DIQMTQSPSSLSASVGDRVTITCRASRSIDTYLNWYQQKPGKAPKLLIYGGSRLQSGVPSRFSGSGSGTDFTLTISSLQPEDFATYYCQQSYSTPPVTFGGGTKVEIK
notes: IgG2
B8: IL1RL2-299 (antibody, V domains shown)
VH: EVQLLESGGGLVQPGGSLRLSCAASGFIFSRYAMSWVRQAPGKGLEWVSAISESGGNTYYADSVKGRFTISRDNSKNTLYLQMNSLRAEDTAVYYCARQRYPGGSGSYADYWGQGTLVTVSS
VL: B6 VL with T28S, G30S, Y32D, G51V, R53S, Y92H, Y96F
notes: IgG2
B9: IL1RL2-300 (antibody, V domains shown)
VH: EVQLLESGGGLVQPGGSLRLSCAASGFTFSGYAMNWVRQAPGKGLEWVSTISGSGVSTYYADSVKGRFTISRDNSKNTLYLQMNSLRAEDTAVYYCAREQHLVEGDFDNWGQGTLVTVSS
VL: B5 VL with A25T, V33L, G50A, S51A, Y53S, N91S, N92Y, W94I, T96Y
notes: IgG2
B10: IL1RL2-302 (antibody, V domains shown)
VH: EVQLLESGGGLVQPGGSLRLSCAASGFPLSSYAMSWVRQAPGKGLEWVSLISGSGVSTYYADSVKGRFTISRDNSKNTLYLQMNSLRAEDTAVYYCARGWGAAEEWGQGTLVTVSS
VL: DIQMTQSPSSLSASVGDRVTITCRASQRISNYLHWYQQKPGKAPKLLIYAASRLHSGVPSRFSGSGSGTDFTLTISSLQPEDFATYYCQQSHTIPYTFGQGTKVEIK
notes: IgG2
B11: TSLP-38 (VHH)
VHH: EVQLVESGGGLVQPGGSLRLSCAASGFSLDYYAMGWFRQAPGKERELVSAIFSDGSALYADSVKGRFTISADNSKNTAYLQMNSLKPEDTAVYYCAKDRDTGIGAYDWGQGTLVTVSS
notes: VHH-Fc (IgG2 Fc); not shown: IgG2 Fc of the VHH-Fc format
B12: TSLP-40 (VHH)
VHH: EVQLVESGGGLVQPGGSLRLSCAASGLTFSRYAMGWFRQAPGKEREFVSAIFSDGSTYYADSVKGRFTISADNSKNTAYLQMNSLKPEDTAVYYCARGPNWFDPWGQGTLVTVSS
notes: as for B11
B13: TSLP-121 (antibody, V domains shown)
VH: QVQLVQSGAEVKKPGSSVKVSCKASGGSFSSYAISWVRQAPGQGLEWMGGIIPMNYAQKFQGRVTITADESTSTAYMELSSLRSEDTAVYYCARQLAAALVYWGQGTLVTVSS
VL: EIVLTQSPGTLSLSPGERATLSCRASQNVNTRYLAWYQQKPGQAPRLLIYAASSRATGIPDRFSGSGSGTDFTLTISSLEPEDFAVYYCQQYESSPYNFGQGTKVEIK
B14: TSLP-2 (VHH)
VHH: EVQLVESGGGLVQPGGSLRLSCAASGLTFSTTVMGWFRQAPGKEREWVATIAGDGSTFYADSVKGRFTISADNSKNTAYLQMNSLKPEDTAVYYCADINEDWGQGTLVTVSS
notes: as for B11
B15: TSLP-5 (VHH)
VHH: EVQLVESGGGLVQPGGSLRLSCAASGVTLDTDAMGWFRQAPGKEREFVAWINNRGTTDYADSVKGRFTISADNSKNTAYLQMNSLKPEDTAVYYCARVSQWLLGGPANWGQGTLVTVSS
notes: as for B11
B16: TSLP-9 (VHH)
VHH: EVQLVESGGGLVQPGGSLRLSCAASGPMSSSAVMGWFRQAPGKEREAVALGWSGGSTYYADSVKGRFTISADNSKNTAYLQMNSLKPEDTAVYYCAIHTSREIWGQGTLVTVSS
notes: as for B11
B17: TSLP-10 (VHH)
VHH: EVQLVESGGGLVQPGGSLRLSCAASGFTLDDYVMGWFRQAPGKEREGVATIAGGGTYYADSVKGRFTISADNSKNTAYLQMNSLKPEDTAVYYCASSGSYYPGHFEWGQGTLVTVSS
notes: as for B11
B18: TSLP-13 (VHH)
VHH: EVQLVESGGGLVQPGGSLRLSCAASGFTFDDNDMGWFRQAPGKEREFVGAISWSGNTTYYKYYADSVKGRFTISADNSKNTAYLQMNSLKPEDTAVYYCSNQYGWGQGTLVTVSS
notes: as for B11
B19: TSLP-16 (VHH)
VHH: EVQLVESGGGLVQPGGSLRLSCAASGFSLDDYAMGWFRQAPGKEREGVATIAGGYTYYADSVKGRFTISADNSKNTAYLQMNSLKPEDTAVYYCAAFDGYTGSDWGQGTLVTVSS
notes: not shown: IgG2 Fc of the VHH-Fc format
B20: TSLP-17 (VHH)
VHH: EVQLVESGGGLVQPGGSLRLSCAASGTTFEIYPMGWFRQAPGKEREFVAAIHWNSGITYYADSVKGRFTISADNSKNTAYLQMNSLKPEDTAVYYCARDVFYFDSSGYSLWGQGTLVTVSS
notes: as for B11

Each binder was assayed against T1, IL1RL2 over-expressed on Expi293 cells (assay: flow cytometry titration on over-expressing Expi293 cells).
Method: (§1) All incubations and washes were in buffer containing PBS+1% BSA. MFI Ratio is defined by the mean fluorescence intensity (MFI) of the cytokine over-expressing Expi293 cell over the Expi293 parent cell. […] EC50 was calculated in GraphPad Prism.

| Binder | EC50 [nM] |
| --- | --- |
| B1 | 445 |
| B2 | 34.5 |
| B3 | 27.5 |
| B4 | 15.2 |
| B5 | 2.26 |
| B6 | 618 |
| B7 | 100 |
| B8 | 2.25 |
| B9 | 1.57 |
| B10 | 1.1 |

Each binder was assayed against T2, TSLP (UniProt Q969D9 29-159) (assay: SPR, Carterra LSA, antibody amine-coupled, 1:1 model).
T2 construct: Soluble analyte of the SPR assay
Method: SPR experiments were performed on a Carterra LSA SPR biosensor equipped with a HC30M chip at 25° C. in HBS-TE. Antibodies were diluted to 10 μg/mL and amine-coupled to the sensor chip by EDC/NHS activation, followed by ethanolamine HCl quenching. Increasing concentrations of analyte were flowed over the sensor chip in HBS-TE with 0.5 mg/mL BSA with 5-minute association and 15-minute dissociation. Following each injection cycle the surface was regenerated with 2× 30-second injections of IgG elution buffer (Thermo). Data were analyzed in Carterra's Kinetics Tool software with 1:1 binding model.

| Binder | Kd [nM] | koff [s⁻¹] | kon [M⁻¹ s⁻¹] |
| --- | --- | --- | --- |
| B11 | 10.1 | 0.000487 | 48300 |
| B12 | 19.3 | 0.000493 | 25600 |
| B13 | 2.96 | 0.00175 | 589000 |
| B14 | 6.49 | 0.0018 | 278000 |
| B15 | 24.5 | 0.000759 | 31000 |
| B16 | 31 | 0.00151 | 48600 |
| B17 | 8.43 | 0.000805 | 95500 |
| B18 | 41.3 | 0.0013 | 31600 |
| B19 | 11.9 | 0.00143 | 120000 |
| B20 | 11.2 | 0.00042 | 37500 |

The binders below were run against T3, TSLP on over-expressing Expi293 cells (UniProt Q969D9 29-159, limits assumed) (assay: flow cytometry, 100 nM, TSLP over-expressing Expi293 over parent cells).
T3 construct: whole, on cells; Target of the flow cytometry assay; also called cytokine over-expressing Expi293 cells
Method: as §1

| Binder | 100 nM (MFI Ratio) [MFI ratio] |
| --- | --- |
| B11 | 89.3 |
| B12 | 288 |
| B13 | 37.5 |
| B14 | 218 |
| B15 | 149 |
| B16 | 8.6 |
| B17 | 67.8 |
| B18 | 120 |
| B19 | 10 |
| B20 | 154 |

What follows are binders tested against T1, IL1RL2 over-expressed on Expi293 cells (assay: flow cytometry, over-expressing Expi293 vs parent cells, 100 nM antibody;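 further: ratio is mean fluorescence intensity on over-expressing Expi293 cells divided by that measured on parental Expi293 cells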).
Method: as §1

| Binder | 100 nM FACS (MFI Ratio) |
| --- | --- |
| B1 | 350 |
| B2 | 707 |
| B3 | 17.7 |
| B4 | 21.5 |
| B5 | 45 |
| B6 | 214 |
| B7 | 49.6 |
| B8 | 19.2 |
| B9 | 23.9 |
| B10 | 192 |

Each binder was assayed against T3, TSLP on over-expressing Expi293 cells (assay: flow cytometry titration on TSLP over-expressing Expi293 cells).
Method: as §1

| Binder | EC50 [nM] |
| --- | --- |
| B11 | 0.31 |
| B12 | 0.14 |
| B13 | 1.35 |
| B14 | 0.43 |
| B15 | 0.73 |
| B16 | 0.73 |
| B17 | 1.4 |
| B18 | 0.37 |
| B19 | 0.58 |
| B20 | 0.12 |
